This is an account of results in PMC4014440.

The target in this experiment is FLAG epitope tagged DLK-1 K162R (FLAG::DLK-1L K162R) (C. elegans). The experiment is described as follows: co-IP; FLAG::DLK-1 K162R immunoprecipitated from 5 mg of transgenic whole worm lysate (0.1% NP-40 lysis buffer); wild-type or mutant PPM-2::GFP detected by anti-GFP immunoblot; bands quantified with Image J as ratio of PPM-2::GFP in coIP to FLAG::DLK-1 K162R immunoprecipitated.

B1: PPM-2::GFP R185A (phosphatase trapping mutant of PPM-2) (enzyme)
chain: MGQTLSEPVTKKESASCANENYLVGSSCMQGWRVDMEDAHTHLLSLPDDPKCAFFAVYDGHGGSKVSQYSGINLHKKVVAQKEFSEGNMKEAIEKGFLELDQQMRVDEETKDDVSGTTAVVVLIKEGDVYCGNAGDSRAVSSVVGEARPLSFDHKPSHETEARRIIAAGGWVEFNRVNGNLALSAALGDFAFKNCDTKPAEEQIVTAFPDVITDKLTPDHEFIVLACDGIWDVMTNQEVVDFVREKLAEKRDPQSICEELLTRCLAPDCQMGGLGCDNMTVVLVGLLHGQSPDTLFTKCARPAVFTGVNNEDGDQNQIQQDISRVINNFDGEQRVNAANQEEEEDDNEPAPANFQV
Regarding B1, the ratio of PPM-2::GFP in coIP to FLAG::DLK-1 K162R immunoprecipitated turned out to be 1.5.

B2: PPM-2::GFP (GFP fusion protein of wild-type PPM-2) (enzyme)
chain: MGQTLSEPVTKKESASCANENYLVGSSCMQGWRVDMEDAHTHLLSLPDDPKCAFFAVYDGHGGSKVSQYSGINLHKKVVAQKEFSEGNMKEAIEKGFLELDQQMRVDEETKDDVSGTTAVVVLIKEGDVYCGNAGDSRAVSSVVGEARPLSFDHKPSHETEARRIIAAGGWVEFNRVNGNLALSRALGDFAFKNCDTKPAEEQIVTAFPDVITDKLTPDHEFIVLACDGIWDVMTNQEVVDFVREKLAEKRDPQSICEELLTRCLAPDCQMGGLGCDNMTVVLVGLLHGQSPDTLFTKCARPAVFTGVNNEDGDQNQIQQDISRVINNFDGEQRVNAANQEEEEDDNEPAPANFQV
Turning to B2, the ratio of PPM-2::GFP in coIP to FLAG::DLK-1 K162R immunoprecipitated is 0.4.
